# Measurements from PMC10461807 (Frontiers in Immunology, 2023).
# B1: anti-CD30 mAb 10C2 (antibody, V domains shown)
# VH: QVQLEQSGPVLVKPGASVKMSCKASGYTFTDYYMNWVKQSHGKSLEWIGVINPYNGGTSYNQKFKGKATLTVDKSSSTACMELNCLTSEDSAVYYCTLGAYWGQGTSVTVSS
# VL: not shown
# notes: also called clone 10C2; source: mouse hybridoma (custom generated by Genscript), serum-free supernatant, purified (rProtein A GraviTrap)
# B2: anti-CD30 mAb 13H1 (antibody, V domains shown)
# VH: QVQLQQSGTELVKPGASVKLSCKASGHTFTSYWMHWVKQRPGQGLEWIGNINPSNGGTNYNEKFKSKATLTVDKSSSTAYMQLSSLTSEDSAVYYCARRGYYGSSSYWSFDVWGTGTTVTVSS
# VL: DIVMTQTPKSMSMSVGERVTLSCKASENVGTYVSWYQQKPEQSPKVLIYGASNRFTGVPDRFTGSGSATDFTLTISSVQTEDLADYHCGQSYSYPLTFGAGTKLELK
# notes: also called clone 13H1; source: mouse hybridoma (custom generated by Genscript), serum-free supernatant, purified (rProtein A GraviTrap)
# B3: anti-CD30 mAb 12B1 (antibody, V domains shown)
# VH: EVKLEESGTELVKPGASVKLSCKASGYTFTSYWMHWVKQRPGQGLEWIGNINPTNGGTNYNEKFKSKATLTVDKSSRTAYMQLSSLTSGDSAVYYCARRDFITTSGFAYWGQGTLVTVSA
# VL: DIVMTQTTASLSTSVGETVTITCRASGNLHSYLTWYQQKQGKSPQLLVYNAKTLADGVPSRFSGSGSGTQYSLKIDSLQPEDFGSYYCQHFWTTPFTFGSGTKLEIK
# notes: also called clone 12B1; source: mouse hybridoma (custom generated by Genscript), serum-free supernatant, purified (rProtein A GraviTrap)
# B4: anti-CD30 mAb 15B8 (antibody, V domains shown)
# VH: QVQLEQSGTELVKPGASVKLSCKASGYTFTSYWMHWVKQRPGQGLEWIGNINPSNGGTNYNEKFKSKATLTVDKSSSTAYMQLSSLTSEDSAIYYCARRNNYYASSPFAYWGQGTLVSVSA
# VL: DIVMTQTPASLSASVGETVTITCRASGNIHNYLAWYQQKQGKSPQLLVYNAKTLADGVPSRFSGSGSGTQYSLKINSLQPEDFGSYYCQHFWSTPFTFGSGTKLEIK
# notes: also called clone 15B8; source: mouse hybridoma (custom generated by Genscript), serum-free supernatant, purified (rProtein A GraviTrap)
# B5: anti-CD30 mAb 8D10 (antibody, V domains shown)
# VH: QVQLQESGTELVKPGASVKLSCKASGYTFTSYWMHWMKQRPGQGLEWIGNINPSNGGTNYNEKFKNKATLTVDKSSSTAYMQLSSLTSEDSAVYYCARRDYYYGSSYGFDVWGTGTTVTVSS
# VL: DIVMTQSPASQSASLGESVTITCLASQTIGTWLAWYQQKPGKSPQFLIYAATSLADGVPSRFSGSGSGTKFSFKISSLQAEDFVSYYCQQLYSTPFTFGGGTKLEIK
# notes: also called clone 8D10; source: mouse hybridoma (custom generated by Genscript), serum-free supernatant, purified (rProtein A GraviTrap)
# B6: anti-CD30 mAb 10C2 (antibody, V domains shown)
# VH: QVQLEQSGPVLVKPGASVKMSCKASGYTFTDYYMNWVKQSHGKSLEWIGVINPYNGGTSYNQKFKGKATLTVDKSSSTACMELNCLTSEDSAVYYCTLGAYWGQGTSVTVSS
# VL: not shown
# notes: IgG2a constant part; kappa light chain; source: mouse hybridoma supernatant (serum-free medium), purified on rProtein A GraviTrap column
# B7: anti-CD30 mAb 8D10 (antibody, V domains shown)
# VH: QVQLQESGTELVKPGASVKLSCKASGYTFTSYWMHWMKQRPGQGLEWIGNINPSNGGTNYNEKFKNKATLTVDKSSSTAYMQLSSLTSEDSAVYYCARRDYYYGSSYGFDVWGTGTTVTVSS
# VL: DIVMTQSPASQSASLGESVTITCLASQTIGTWLAWYQQKPGKSPQFLIYAATSLADGVPSRFSGSGSGTKFSFKISSLQAEDFVSYYCQQLYSTPFTFGGGTKLEIK
# notes: as for B6
# Molecular target: T1, recombinant huCD30 (R&D) (Homo sapiens, UniProt P28908)
# T1 construct: recombinant human CD30 from R&D; also called rhCD30; huCD30 protein; source: bought: R&D
# Test: SPR; BIAcore 3000, 25°C; recombinant huCD30 amine-coupled on a CM5 chip; mAbs as analyte in serial 1:2 dilutions from 20 nM; 10 mM Hepes pH 7.4, 150 mM NaCl, 0.005% P20, 0.1% BSA; 1:1 Langmuir fit
# Conditions: both partners purified
# T1 sequence (P28908 19-385): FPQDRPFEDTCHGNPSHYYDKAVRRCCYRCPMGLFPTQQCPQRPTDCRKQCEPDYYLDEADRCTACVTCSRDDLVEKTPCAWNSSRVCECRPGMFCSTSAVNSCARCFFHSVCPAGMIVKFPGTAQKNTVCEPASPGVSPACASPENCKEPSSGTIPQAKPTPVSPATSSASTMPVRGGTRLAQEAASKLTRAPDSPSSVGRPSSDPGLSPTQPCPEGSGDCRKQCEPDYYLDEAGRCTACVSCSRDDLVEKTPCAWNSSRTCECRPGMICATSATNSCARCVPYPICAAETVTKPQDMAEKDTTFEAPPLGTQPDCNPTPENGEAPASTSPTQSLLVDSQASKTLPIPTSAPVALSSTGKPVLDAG
Binder,Ka [M⁻¹],Kd [nM],koff [s⁻¹],kon [M⁻¹ s⁻¹]
B1,1.65e+09,0.607,0.000186,307000
B2,6.7e+09,0.149,0.000106,708000
B3,5.02e+09,0.199,1.22e-05,61300
B4,1.02e+09,0.978,0.000493,504000
B5,1.69e+10,0.0592,6e-06,101000

# Molecular target: T2, Recombinant huCD30 (Homo sapiens, UniProt P28908)
# T2 construct: human CD30 (TNFRSF8), recombinant protein from R&D; also called rhCD30; huCD30 protein; source: bought: R&D
# Test: SPR; mAbs (5 ng/ul) immobilized on a Protein G sensor chip at about 200 RU; rhCD30 as analyte (0-2500 nM for the 8D10 and 10C2 flow cells), 2 min at 40 ul/min, 3 min dissociation; 25°C; 10 mM Hepes pH 7.4, 150 mM NaCl, 0.005% P20; BIAcore 3000; 1:1 Langmuir fit
# Conditions: both partners purified
# T2 sequence (P28908 19-385): as above
Binder,Ka [M⁻¹],Kd [nM],koff [s⁻¹],kon [M⁻¹ s⁻¹]
B6,579000,1760,0.0101,5880
B7,878000,1140,0.00523,4530
